From patent publication US8106168B2, “Metalloproteinase binding proteins” (Dyax Corp., priority 2005, dated 2012)

Tests used:
[1] = tested on: activation of pro-MMP-2 by MMP-14 in PMA-activated HT-1080 cells; experiment: Gelatin zymogram, pro-MMP-2 activation in HT-1080 cells; assay type: cell-based, human; settings: gelatin zymography of conditioned media after 3 days; antibodies 10 μg/ml, GM6001 10 μM
Protocol: The ability of anti-MMP-14 IgGs to inhibit the activation of pro-MMP-2 by MMP-14 was examined by gelatin zymogram experiments performed with PMA-activated HT-1080 cells. M0033-H07 and M0038-F01 were tested for their ability to inhibit MMP-14 in this assay. HT1080 cells (well-known to express MMP-14 and MMP-2) were seeded at 5×10^5 cells/well at Day 0. […] HT-1080 cells cultured in the presence of 20 ng/ml of PMA were used as a positive control.
After 3 days of incubation, conditioned media were collected and gelatinolytic activities were analyzed by gelatin zymography as described previously (Maquoi et al, J Biol Chem 2000; 275:11368-78). When HT-1080 cells are activated with a phorbol ester, pro-MMP-2 is activated into MMP-2 (lane 1).

[2] = tested on: PC3 prostate tumors; experiment: PC3 prostate tumor growth; assay type: in vivo, mouse; settings: M0038-F01 10, 1 or 0.1 mg/kg Q2d IP; taxotere 10 mg/kg weekly IP; A2 10 mg/kg Q2d
Text: PC3 prostate cancer cells were implanted into male nude mice by subcutaneous injection.

[3] = biological target: T1, MMP14 (Mus musculus, UniProt P53690); experiment: Immunohistochemical staining in acute phase SCW-induced arthritis; settings: 7 days after first injection of SCW
T1 construct: from tissue; host or cells: knee joints of C57Bl6 mice with SCW-induced arthritis (synovial cells, chondrocytes, macrophages)
Protocol: Antigen-induced arthritis, a model of rheumatoid arthritis, was induced by intraarticular injection of Streptococcus cell wall (SCW, […]) into the knee joints of C57B16 mice at day 0, 7, 14 and 21.
MMP14 expression in acute phase SCW-induced arthritis (7 days after the first injection of SCW) was examined by immunohistochemical staining using M0038-F01.

[4] = biological target: T2, MMP-7 (Homo sapiens, UniProt P09237); experiment: Cross-reactivity of anti-MMP-14 IgGs, enzymatic activity: MMP-7; assay type: biochemical; settings: 1 μM anti-MMP-14 IgG
T2 sequence (P09237 95-267): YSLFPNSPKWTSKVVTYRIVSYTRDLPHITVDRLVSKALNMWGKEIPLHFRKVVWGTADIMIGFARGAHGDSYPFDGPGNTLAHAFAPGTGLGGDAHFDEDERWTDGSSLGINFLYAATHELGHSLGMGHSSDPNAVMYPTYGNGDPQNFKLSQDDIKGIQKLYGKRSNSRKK
Protocol: (§1) The cross-reactivity of exemplary anti-MMP-14 IgGs and Fabs with other human MMPs and TACE (TNF-alpha converting enzyme) was examined. MMP and TACE enzymatic activity was monitored in the absence and presence of 1 μM anti-MMP-14 IgG antibody. Inhibition (Y) of activity ranged from approximately 50-80% of the reaction rate observed in the absence of antibody. “X” indicates no inhibition was observed. Cross-reactivity was not determined for MMP-17 because protein activity could not be detected.
(§2) For the studies summarized in Table 12, six anti-MMP-14 IgGs were selected for cross-reactivity testings: M0043-G02, M0040-A06, M0037-D01, M037-C09, M0038-F01, M0033-H07.

[5] = biological target: MMP-8 (Homo sapiens, UniProt P22894); experiment: Cross-reactivity of anti-MMP-14 IgGs, enzymatic activity: MMP-8; assay type: biochemical; settings: 1 μM anti-MMP-14 IgG
MMP-8, sequence (P22894 101-467): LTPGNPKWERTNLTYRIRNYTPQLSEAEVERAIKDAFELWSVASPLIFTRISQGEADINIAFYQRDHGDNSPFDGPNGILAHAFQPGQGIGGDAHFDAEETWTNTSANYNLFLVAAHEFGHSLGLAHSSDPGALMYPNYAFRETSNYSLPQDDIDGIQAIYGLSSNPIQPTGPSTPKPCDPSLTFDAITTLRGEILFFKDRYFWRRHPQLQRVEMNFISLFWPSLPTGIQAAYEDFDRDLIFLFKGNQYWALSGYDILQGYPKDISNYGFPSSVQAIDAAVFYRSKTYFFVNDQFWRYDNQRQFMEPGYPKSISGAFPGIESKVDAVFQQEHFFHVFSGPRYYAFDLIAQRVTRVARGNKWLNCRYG
Protocol: as §1, §2

[6] = biological target: MMP-3 (Homo sapiens, UniProt P08254); experiment: Cross-reactivity of anti-MMP-14 IgGs, enzymatic activity: MMP-3; assay type: biochemical; settings: 1 μM anti-MMP-14 IgG
MMP-3, sequence (P08254 100-477): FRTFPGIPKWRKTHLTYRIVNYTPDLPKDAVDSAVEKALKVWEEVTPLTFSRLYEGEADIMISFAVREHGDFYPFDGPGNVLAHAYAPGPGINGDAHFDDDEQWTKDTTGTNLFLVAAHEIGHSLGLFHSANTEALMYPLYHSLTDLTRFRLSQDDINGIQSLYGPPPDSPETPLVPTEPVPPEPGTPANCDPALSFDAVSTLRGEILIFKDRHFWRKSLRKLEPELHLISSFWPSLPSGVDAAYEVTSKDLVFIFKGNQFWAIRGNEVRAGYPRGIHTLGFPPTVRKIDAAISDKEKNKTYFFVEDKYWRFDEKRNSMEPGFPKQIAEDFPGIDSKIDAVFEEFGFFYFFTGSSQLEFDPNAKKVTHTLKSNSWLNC
Protocol: as §1, §2

B1: M0038-F01: human antibody (Fab, IgG) that binds and inhibits MMP-14; HC SEQ ID NO: 156, LC SEQ ID NO: 157 (antibody, V domains shown)
VH: EVQLLESGGGLVQPGGSLRLSCAASGFTFSLYSMNWVRQAPGKGLEWVSSIYSSGGSTLYADSVKGRFTISRDNSKNTLYLQMNSLRAEDTAVYYCARGRAFDIWGQGTMVTVSS
VL: QDIQMTQSPSSLSAFVGDKVTITCRASQSVGTYLNWYQQKAGKAPELLIYATSNLRSGVPSRFSGSGSGTDFTLTINTLQPEDFATYYCQQSYSIPRFTFGPGTKVDIK
modifications: Synthetically generated peptide
**Q.** For B1, which “pro-MMP-2 activation by MMP-14” value [1] is on record?
**A.** The value was “completely inhibits”.

**Q.** What about the pro-MMP-9 expression [1] of the same molecule?
**A.** Its pro-MMP-9 expression is “No stimulation”.

**Q.** And the “tumor growth (tumor volume)” value [2]?
**A.** The value was “reduced in all M0038-F01 treated animals, with the 10 mg/kg dose being most effective, followed by the 1 mg/kg and 0.1 mg/kg doses”.

**Q.** And the “immunohistochemical staining of joint tissue” value [3]?
**A.** Its value is “strongly stained synovial cells and chondrocytes, as well as macrophages in joint exudate”.

B2: M0040-A06: human antibody (Fab, IgG) that binds and inhibits MMP-14; HC SEQ ID NO: 162, LC SEQ ID NO: 163 (antibody, V domains shown)
VH: EVQLLESGGGLVQPGGSLRLSCAASGFTFSYYGMYWVRQAPGKGLEWVSSISSSGGYTDYADSVKGRFTISRDNSKNTLYLQMNSLRAEDTAVYYCARRIKYYDIEGEGAFDIWGQGTMVTVSS
VL: QDIVMTQTPPSLPVNPGEPASISCRSSQSLLHRNGYNYLDWYLQKPGQSPQLLIHLGSYRASGVPDRFSGSGSGTDFTLKISRVEAEDVGVYYCMQPLQTPFTFGPGTKVDIK
modifications: Synthetically generated peptide
**Q.** Which results are given for B2?
**A.** Cross reactivity: inhibition of MMP-7 activity [4]: Y (Inhibition (Y) of activity ranged from approximately 50-80% of the reaction rate observed in the absence of antibody); Cross reactivity: inhibition of MMP-8 activity [5]: Y (Inhibition (Y) of activity ranged from approximately 50-80% of the reaction rate observed in the absence of antibody); Cross reactivity: inhibition of MMP-3 activity [6]: Y (Inhibition (Y) of activity ranged from approximately 50-80% of the reaction rate observed in the absence of antibody)
